Reference: patent US10583180B2, “Method for treating adenosine deaminase severe combined imunodeficiency” (UCL Business PLC, priority 2015, dated 2020)
“Also recorded” adds a separate entry of the source.

Legend:
ADA-deficient SCID = test: Phase I/II clinical trial of autologous CD34+ cells transduced with EFS-ADA lentiviral vector; type: in vivo, human; conditions: weight adjusted dose prior to reinfusion
Excerpt: For the non-controlled, non-randomised Phase I/II clinical trial, to assess the safety and efficacy of autologous transplantation of CD34+ cells from ADA-deficient SCID infants following human ADA cDNA transfer by the EFS-ADA lentiviral vector, subjects received the infusion of their autologous, transduced cells following marrow cytoreduction with busulfan.
Patients were selected on the basis of inclusion and exclusion criteria detailed below. A back-up harvest was retained in case of failure of reconstitution following conditioning and re-infusion of transduced cells. For the transduction protocol, CD34+ cells were purified from G-CSF mobilised PBSCs recovered by leukapheresis (Plerixafor could be added to enhance mobilization), whenever possible or from bone marrow harvested under general anaesthetic. Back up cells of 3×10^6 CD34+/kg were stored from a single procedure if sufficient cell counts were available (and if not previously stored). The remaining CD34+ cells were taken forward for transduction. […] After purification, CD34+ cells were immediately transduced with the lentiviral vector, then evaluated for sterility, cell count, and viability, and immediately infused into patients. Several other tests for safety including testing for RCLs were performed on reinfused cells and results recorded retrospectively. […]

ADA−/− mice = test: Reconstitution of lethally irradiated ADA−/− mice with transduced lin-ve cells, analysed after 12 weeks; conditions: mouse, in vivo
Excerpt: Early models of ADA deficient mice were limited by embryonic or peri-natal lethality as a result of severe hepatocellular and pulmonary damage. A two stage transgenic strategy in which ADA expression is restricted to trophoblasts rescues ADA null mice from pre- and peri-natal lethality and allows post-natal study of mice lacking ADA expression. In this model, many features of the human disease are accurately represented. Mice show abnormalities of thymic architecture with a significant block in thymocyte development at the CD4-CD8- double negative stage. […] In the periphery, there is a profound lymphopaenia with a severe T, B and NK cell deficiency that is seen in humans together with abnormalities in splenic lymphoid architecture and a paucity of splenic T cell populations. Murine ADA deficiency also manifests a number of non-immunological abnormalities including lung, renal, costochondral and neurological changes. Pulmonary problems are present in mice from ˜postnatal day 12 and are associated with significant lung inflammatory changes, eventually leading to the death of mice by postnatal day 22 from pulmonary insufficiency, unless early treatment is initiated. […] Mice were analysed after 12 weeks and compared with ADA−/− mice, mice that had undergone wild type transplant experiments (WT) or mice that had been treated with enzyme replacement therapy alone. […]

ADA-SCID patients = conditions: cited from earlier work

For `CS(=O)(=O)OCCCCOS(C)(=O)=O` [Busulfan], the toxicities of conditioning (ADA-deficient SCID) was “No toxicities; also recorded: without any significant toxicity”.

B1: PEG-ADA: bovine form of ADA conjugated to polyethylene glycol; enzyme replacement therapy (conjugate, UniProt P56658 2-363, looked up)
Adenosine deaminase: AQTPAFNKPKVELHVHLDGAIKPETILYYGRKRGIALPADTPEELQNIIGMDKPLSLPEFLAKFDYYMPAIAGCREAVKRIAYEFVEMKAKDGVVYVEVRYSPHLLANSKVEPIPWNQAEGDLTPDEVVSLVNQGLQEGERDFGVKVRSILCCMRHQPSWSSEVVELCKKYREQTVVAIDLAGDETIEGSSLFPGHVKAYAEAVKSGVHRTVHAGEVGSANVVKEAVDTLKTERLGHGYHTLEDATLYNRLRQENMHFEVCPWSSYLTGAWKPDTEHPVVRFKNDQVNYSLNTDDPLIFKSTLDTDYQMTKNEMGFTEEEFKRLNINAAKSSFLPEDEKKELLDLLYKAYGMPSPASAEQCL
modifications: PEG conjugate (pegademase bovine)
notes: bovine form of ADA conjugated to polyethylene glycol; enzyme replacement therapy
For B1, the “T cells in the mononuclear fraction of peripheral blood” value (ADA−/− mice) is given as “marked increase in T cell recovery”, the “overall probability of surviving 20 years on ERT” value (ADA-SCID patients; estimated) is given as 78% and the “enzyme activity on a ml to ml basis relative to packed erythrocytes” value (ADA-SCID patients; in vivo) is given as ~1800 times. The “patients developing antibodies against bovine epitopes” value (ADA-SCID patients; in vivo) was ~50% and the “probability of surviving the next 12 years” value (ADA-SCID patients; patient alive 6 months after starting ERT) was “about 90%”.
